Results taken from patent US20250361544A1, “TYPE III-D CRISPR-CAS SYSTEM AND USES THEREOF” (BOARD OF REGENTS, THE UNIVERSITY OF TEXAS SYSTEM, published 2025).

Target: T1, Cas7-Cas5-Cas11 fusion subunit of the Synechocystis sp. PCC 6803 Type III-Dv complex (Synechocystis sp. PCC 6803)
T1 construct: Untagged, co-expressed from pPF2434 in E. coli; one copy in the complex; also called Cas7-5-11; Cas5-Cas7-Cas11
T1 chain: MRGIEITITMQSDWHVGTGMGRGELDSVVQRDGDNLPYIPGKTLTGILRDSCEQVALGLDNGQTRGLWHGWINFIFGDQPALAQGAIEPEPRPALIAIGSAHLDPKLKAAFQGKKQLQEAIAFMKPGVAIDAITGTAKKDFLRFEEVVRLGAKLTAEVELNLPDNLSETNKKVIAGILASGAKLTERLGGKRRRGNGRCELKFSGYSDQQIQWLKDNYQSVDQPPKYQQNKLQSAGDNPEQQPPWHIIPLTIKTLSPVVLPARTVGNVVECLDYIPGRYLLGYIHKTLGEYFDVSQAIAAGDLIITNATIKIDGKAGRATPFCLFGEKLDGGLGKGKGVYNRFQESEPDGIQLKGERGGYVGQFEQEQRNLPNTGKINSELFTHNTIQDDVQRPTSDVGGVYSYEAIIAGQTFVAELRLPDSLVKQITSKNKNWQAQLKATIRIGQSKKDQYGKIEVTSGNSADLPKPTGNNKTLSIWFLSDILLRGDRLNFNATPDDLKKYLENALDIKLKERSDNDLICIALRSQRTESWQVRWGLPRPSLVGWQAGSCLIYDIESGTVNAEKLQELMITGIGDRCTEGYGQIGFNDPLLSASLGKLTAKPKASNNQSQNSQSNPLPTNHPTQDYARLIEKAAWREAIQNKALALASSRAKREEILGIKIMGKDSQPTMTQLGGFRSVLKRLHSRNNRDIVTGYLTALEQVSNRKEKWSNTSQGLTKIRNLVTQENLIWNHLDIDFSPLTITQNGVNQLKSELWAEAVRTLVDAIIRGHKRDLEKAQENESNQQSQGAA
Assay: co-purification by metal affinity (His6-Cas10) and SEC; SDS-PAGE and MS; membership of one complex
Experimental: Cells were lysed by a French pressure cell press (American Industry Company) at 10,000 psi, and the lysate was clarified by centrifugation at 15,000×g for 15 min. […] The fractions containing the Type III-Dv complex were pooled and treated with TEV protease and incubated at 4° C. during overnight dialysis in SEC buffer (10 mM HEPES-NaOH, PH 7.5, 100 mM KCl, 5% Glycerol, 1 mM DTT). The sample was applied to a second HisTrap column; however, due to inefficient TEV cleavage, the complex unexpectedly bound the column and eluted with high imidazole. The complex was further purified by size exclusion chromatography (SEC) on a HiLoad 16/600 Superdex 200 column (GE Healthcare) equilibrated in SEC Buffer). Mutant Type III-Dv complexes were similarly expressed and purified, except TEV protease was omitted. Purified complexes were typically concentrated to 1.5 mg/ml using a centrifugal concentrator (Amicon; 100 kDa MWCO), aliquoted, and stored at −80° C.
Denaturing liquid chromatography mass spectrometry (LC-MS) was performed on a Dionex UltiMate 3000 nanoLC system coupled to a Thermo Orbitrap Fusion Lumos Tribrid mass spectrometer (San Jose, Ca). The trap column (3 cm) and analytical column (30 cm) were packed in-house with polymer reverse-phase (PLRP) packing material. […]

B1: Cas10 subunit of the Synechocystis sp. PCC 6803 Type III-Dv CRISPR-Cas complex, with N-terminal His6 tag and TEV site (other)
chain: MFLVLIETSGNQHFIFSTNKLRENIGASELTYLATTEILFQGVDRVFQTNYYDQWSDTNSLNFLADSKLNPAIDDPKNNADIEILLATSGKAIALVKEEGKAKQLIKEVTKQALINAPGLEIGGIYVNCNWQDKLGVAKAVKEAHKQFEVNRAKRAGANGRFLRLPIAAGCSVSELPASDFDYNADGDKIPVSTVSKVKRETAKSAKKRLRSVDGRLVNDLAQLEKSFDELDWLAVVHADGNGLGQILLSLEKYIGEQTNRNYIDKYRRLSLALDNCTINAFKMAIAVFKEDSKKIDLPIVPLILGGDDLTVICRGDYALEFTREFLEAFEGQTETHDDIKVIAQKAFGVDRLSACAGISIIKPHFPFSVAYTLAERLIKSAKEVKQKVTVTNSSPITPFPCSAIDFHILYDSSGIDFDRIREKLRPEDNTELYNRPYVVTAAENLSQAQGYEWSQAHSLQTLADRVSYLRSEDGEGKSALPSSQSHALRTALYLEKNEADAQYSLISQRYKILKNFAEDGENKSLFHLENGKYVTRFLDALDAKDFFANANHKNQGE
notes: Whole gene amplified from Synechocystis genomic DNA and co-expressed in E. coli from pPF2434; The complex also holds a 37-nt crRNA; also called His6-TEV-Cas10; N-His6-tagged Cas10; not shown: TEV cleavage was inefficient, so
- binding result: binds
